From publication PMC12572175, “A synergistic generative-ranking framework for tailored design of therapeutic single-domain antibodies” (Cell Discovery, 2025)
Positions count from the first letter of the chain named. Names and notes keep the numbering of the source.

Biological target: T1, Recombinant human TNFα (Homo sapiens, UniProt P01375)
T1 construct: human TNFα, residues 77-233 of GenBank AAA61198.1, behind an N-terminal signal peptide and 6x His tag; also called hTNFα; TFNα; source: Expi293, transient transfection, purified (Ni-NTA)
Experiment: ELISA; 100-200 ng/well antigen coated in PBS, sdAbs added in 3-fold serial dilutions, 1.5 h at 37 °C, detected with HRP anti-flag antibody
Settings: both partners purified

T1 sequence (P01375 77-233): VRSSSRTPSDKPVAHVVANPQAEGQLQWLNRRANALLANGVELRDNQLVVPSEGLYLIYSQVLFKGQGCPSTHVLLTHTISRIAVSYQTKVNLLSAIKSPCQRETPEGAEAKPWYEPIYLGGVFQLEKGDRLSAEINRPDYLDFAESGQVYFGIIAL

B1: VHH3-M1 (VHH)
VHH: QVQLQDSGGGLVQAGGSLRLSCAVSGRTFSAHSVYTMGWFRQAPGKEREFVARIYWSSANTYYADSVKGRFTISRDNAKNTVDLQMNSLRPEDTAVYYCAARDGIPTSRTVGSYNYWGQGTQVTVSS
notes: redesigned variant of VHH3 (carries L90Q, IMGT numbering); Designed by TFDesign-sdAb; pComb3x with N-terminal OmpA signal peptide; also called VHH-M1; source: E. coli HB2151, purified (Ni-NTA or Protein A resin); also in lysis supernatant; not shown: FLAG, C-terminal, kept
binding result: binds

B2: VHH3-M3 (VHH)
VHH: B1 VHH with D83Y
notes: redesigned variant of VHH3 (carries L90Q; differs from VHH3-M1 only at position 88, IMGT numbering); Designed by TFDesign-sdAb; pComb3x with N-terminal OmpA signal peptide; also called VHH-M3; source: E. coli HB2151, purified (Ni-NTA or Protein A resin); also in lysis supernatant; not shown: FLAG, C-terminal, kept
binding result: binds
